Measured values reported in article PMC7573975.

Target: Red_a PSI complex (one PSI monomer of the trimer; chimeric Photosystem I of Synechocystis PCC 6803) (Synechocystis sp. PCC6803 | Synechocystis sp. PCC6803 (endogenous)) (UniProt P29254)
Experiment: cryo-EM structure; single particle Cryo-EM of the purified Red_a PSI trimer; 30 mM Tricine-NaOH pH 8, 150 mM NaCl, 0.02% DDM; 1 mg/ml chlorophyll; C1, symmetry expansion and multibody refinement with each monomer as a body

A stoichiometry N of 3 was found for “Red_a PSI complex (one PSI monomer of the trimer; chimeric Photosystem I of Synechocystis PCC 6803) (from UniProt P29254 1-751; P29255 1-731; P32422 1-81; P72712 1-86; P37277 1-157)” in this work.
